# Patent US20220034872
# System: GST fusion recombinant OCT4 protein
substance,measurement,value
GST fusion recombinant CSNK2A1,"in vitro kinase assay, OCT4 phosphorylation read by SDS-PAGE and western blotting","in the presence of OCT4 and CSNK2A1, OCT4 phosphorylation was recognized by a phosphorylated antibody"
